B1: UFC1 (wild type, recombinant) (enzyme, human, UniProt Q9Y3C8 1-167, looked up)
chain: MADEATRRVVSEIPVLKTNAGPRDRELWVQRLKEEYQSLIRYVENNKNADNDWFRLESNKEGTRWFGKCWYIHDLLKYEFDIEFDIPITYPTTAPEIAVPELDGKTAKMYRGGKICLTDHFKPLWARNVPKFGLAHLMALGLGPWLAVEIPDLIQKGVIQHKEKCNQ
notes: UFC1, human, the E2-like conjugating enzyme of UFM1; also called E2-like enzyme for ufmylation; source: recombinant, E. coli, purified on Glutathione Sepharose 4B, GST removed by PreScission protease
B2: UFC1 T106I (recombinant) (enzyme, human, UniProt Q9Y3C8 1-167, looked up)
chain: MADEATRRVVSEIPVLKTNAGPRDRELWVQRLKEEYQSLIRYVENNKNADNDWFRLESNKEGTRWFGKCWYIHDLLKYEFDIEFDIPITYPTTAPEIAVPELDGKIAKMYRGGKICLTDHFKPLWARNVPKFGLAHLMALGLGPWLAVEIPDLIQKGVIQHKEKCNQ
notes: UFC1, human, with the patients' homozygous variant c.317C>T p.(Thr106Ile); A variant found in patients; also called p.(Thr106Ile); source: recombinant, E. coli, purified on Glutathione Sepharose 4B, GST removed by PreScission protease

Target: T1, GST-UBA5 (UniProt Q9GZZ9 1-404)
T1 construct: also called E1-like enzyme for ufmylation; source: recombinant, E. coli, purified on Glutathione Sepharose 4B (GST kept)
T1 sequence (Q9GZZ9 whole entry): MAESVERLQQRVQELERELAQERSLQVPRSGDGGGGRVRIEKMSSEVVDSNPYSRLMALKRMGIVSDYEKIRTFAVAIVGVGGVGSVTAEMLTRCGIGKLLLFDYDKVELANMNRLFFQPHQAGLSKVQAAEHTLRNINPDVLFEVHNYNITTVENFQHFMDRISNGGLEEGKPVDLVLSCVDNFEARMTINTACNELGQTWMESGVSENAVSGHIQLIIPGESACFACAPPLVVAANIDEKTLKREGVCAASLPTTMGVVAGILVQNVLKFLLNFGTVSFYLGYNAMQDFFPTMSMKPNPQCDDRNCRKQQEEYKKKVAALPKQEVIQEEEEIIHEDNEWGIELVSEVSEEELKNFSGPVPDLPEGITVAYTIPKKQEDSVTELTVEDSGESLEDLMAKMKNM
Assay: pull-down; GST-UBA5 bound to Glutathione Sepharose 4B, incubated 20 min at 4°C with purified proteins in 20 mM Tris-Cl pH 7.5, 150 mM NaCl, 1 mM EDTA, 1 mM DTT, 0.05% Nonidet P-40; NuPAGE and Coomassie staining
Conditions: both partners purified

Binder | binding result
B1 | binds
B2 | binds

From paper PMC6022668, “Biallelic UFM1 and UFC1 mutations expand the essential role of ufmylation in brain development” (Brain, 2018)
